Data as given in patent US20230279126A1 (published 2023).
Changes are numbered by the printed parent chain.

T1: extracellular domain of mouse IL12RB1 (mIL12Rb1 ECD) (mouse, UniProt Q60837 20-565)
T1 construct: The immunogen was a fusion of the ECD with the human IgG1 hinge and Fc; also called mIL12Rb1 ECD antigen
T1 sequence: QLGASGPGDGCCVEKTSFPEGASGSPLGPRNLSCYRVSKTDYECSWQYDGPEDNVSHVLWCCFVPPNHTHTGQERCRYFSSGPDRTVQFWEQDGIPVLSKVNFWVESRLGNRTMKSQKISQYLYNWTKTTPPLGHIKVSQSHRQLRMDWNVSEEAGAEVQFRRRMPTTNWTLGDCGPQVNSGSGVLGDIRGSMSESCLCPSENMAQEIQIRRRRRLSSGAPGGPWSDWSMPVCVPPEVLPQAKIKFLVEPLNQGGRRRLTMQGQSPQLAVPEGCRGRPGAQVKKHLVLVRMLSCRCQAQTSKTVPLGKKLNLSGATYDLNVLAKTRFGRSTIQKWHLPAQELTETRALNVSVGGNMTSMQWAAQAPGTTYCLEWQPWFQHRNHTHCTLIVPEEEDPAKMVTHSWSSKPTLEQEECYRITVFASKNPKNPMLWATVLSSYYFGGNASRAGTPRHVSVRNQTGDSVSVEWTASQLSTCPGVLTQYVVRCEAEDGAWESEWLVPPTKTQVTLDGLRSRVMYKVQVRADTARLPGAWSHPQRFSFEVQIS

B1: mIL12Rb1_VHH1 (VHH)
VHH: QVQLQESGGGSVQAGGSLRLSCTASGYTYSSAFMAWFRQAPGKEREGVAAIYTRDGGTVYADSVKGRFTISQDNAKNTLYLQMNSLKAEDTAMYYCAAKIPQPGRASLLDSQTYDYWGQGTQVTVSS
notes: Phagemid clone with his-tag, periplasmic extract
B2: mIL12Rb1_VHH17 (VHH)
VHH: B1 VHH with I51M, M83I, N84H, S85T
notes: as for B1
B3: mIL12Rb1_VHH22 (VHH)
VHH: B1 VHH with T78I
notes: as for B1
B4: mIL12Rb1_VHH18 (VHH)
VHH: B1 VHH with I51M, A88T
notes: as for B1
B5: mIL12Rb1_VHH6 (VHH)
VHH: B1 VHH with G57S, T58P, V64L, Y80H, A88P, Q102E, A106I, Q119H
notes: as for B1
B6: mIL12Rb1_VHH23 (VHH)
VHH: B1 VHH with A88P, I100M
notes: as for B1
B7: mIL12Rb1_VHH5 (VHH)
VHH: QVQLQESGGGSVQAGETLRLSCTVSGFTIDDSEMGWYRQAPGHECELVASGSSDDDTYYVDSVKGRFTISLDNAKNMVYLQMNSLKPEDTAVYYCATGPTYPPKDGDCAHWGQGTQVTVSS
notes: as for B1
B8: mIL12Rb1_VHH2 (VHH)
VHH: QVQLQESGGGSVQAGGSLRLSCAVSGYDYCGYDVRWYRQAPGKEREFVSGIDSDGSTSYADSVKGRFTISQDNAENTSYLHMFSLKPEDTAMYYCKTESPAGESAWCRNFRGMDYWGKGTQVTVSS
notes: as for B1
B9: mIL12Rb1_VHH7 (VHH)
VHH: B8 VHH with Q39R
notes: as for B1
B10: mIL12Rb1_VHH16 (VHH)
VHH: B8 VHH with D52N, S99G
notes: as for B1
B11: mIL12Rb1_VHH21 (VHH)
VHH: B8 VHH with Q39R
notes: as for B1
B12: mIL12Rb1_VHH4 (VHH)
VHH: QVQLQESGGGSVQAGGSLRLSCAASRYTYTNNFMAWFRQAPGKEREGVAAIYTGDGYAYYFDSVKGRFTISQDNDKNMLYLQMNSLKPEDTAMYYCAAMERRSGRRRMTENAEYKYWGQGTQVTVSS
notes: as for B1
B13: mIL12Rb1_VHH12 (VHH)
VHH: B12 VHH with D62Y, K76E, S103I, R105T
notes: as for B1
B14: mIL12Rb1_VHH19 (VHH)
VHH: QVQLQESGGGSVQAGGFLRLSCVASGYGYCGYDMSWYRQVPGKEREFVALITSDRSVSYEDSVKGRFSISRDNAKNTAYLEMNRLTPDDTAIYYCKTSTAARENNWCRSRYRIASWGQGTQVTVSS
notes: as for B1
B15: mIL12Rb1_VHH8 (VHH)
VHH: B14 VHH with V40A, D54E, S56V, V57I, K75E, A78G, T99A, N104S, N105S, I113V
notes: as for B1
B16: mIL12Rb1_VHH3 (VHH)
VHH: QVQLQESGGGSVQAGGSLRLSCVASGYSYCGYDMMWYRQAPGKEREFVALITSDYSIRYEDSVEGRFSISRDNAKNTGYLLMSNLTPADTAIYYCKTSTAARESSWCRSRYRVASWGQGTQVTVSS
notes: as for B1
B17: mIL12Rb1_VHH13 (VHH)
VHH: B16 VHH with S105G
notes: as for B1
B18: hIL12Rb1_VHH22 (VHH)
VHH: B1 VHH
notes: as for B1
B19: hIL12Rb1_VHH12 (VHH)
VHH: B1 VHH with A88P, I100M
notes: as for B1
B20: hIL12Rb1_VHH20 (VHH)
VHH: B1 VHH with G57S, T58P, V64L, Y80H, A88P, Q102E, A106I, Q119H
notes: as for B1
B21: hIL12Rb1_VHH16 (VHH)
VHH: B1 VHH with I51M, M83I, N84H, S85T
notes: as for B1
B22: hIL12Rb1_VHH21 (VHH)
VHH: B1 VHH with I51M, A88T
notes: as for B1
B23: hIL12Rb1_VHH2 (VHH)
VHH: B1 VHH with T78I
notes: as for B1
B24: hIL12Rb1_VHH10 (VHH)
VHH: B8 VHH
notes: as for B1
B25: hIL12Rb1_VHH11 (VHH)
VHH: B8 VHH
notes: as for B1
B26: hIL12Rb1_VHH15 (VHH)
VHH: B8 VHH with D52N
notes: as for B1
B27: hIL12Rb1_VHH19 (VHH)
VHH: B8 VHH with D52N, S99G
notes: as for B1
B28: hIL12Rb1_VHH7 (VHH)
VHH: B8 VHH with Q39R
notes: as for B1
B29: hIL12Rb1_VHH14 (VHH)
VHH: B8 VHH with Q39R
notes: as for B1
B30: hIL12Rb1_VHH6 (VHH)
VHH: B12 VHH with D62Y, K76E, S103I, R105T
notes: as for B1
B31: hIL12Rb1_VHH18 (VHH)
VHH: B12 VHH
notes: as for B1
B32: hIL12Rb1_VHH17 (VHH)
VHH: B14 VHH
notes: as for B1
B33: hIL12Rb1_VHH4 (VHH)
VHH: QVQLQESGGGSVQAGGSLRLSCVASGYGYCGYDMSWYRQTPGKEREFVALITSDRIASYEDSVKGRFIISRDNAKNTGYLDMTRVTPDDTAIYYCKTSAAARENSWCRSRYRVASWGQGTQVTVSS
notes: as for B1
B34: hIL12Rb1_VHH13 (VHH)
VHH: B14 VHH with V40A, D54E, S56V, V57I, K75E, A78G, T99A, N104S, N105S, I113V
notes: as for B1
B35: hIL12Rb1_VHH5 (VHH)
VHH: B14 VHH with I92V, S115Y
notes: as for B1
B36: hIL12Rb1_VHH3 (VHH)
VHH: B16 VHH
notes: as for B1
B37: hIL12Rb1_VHH8 (VHH)
VHH: B16 VHH
notes: as for B1
B38: hIL12Rb1_VHH9 (VHH)
VHH: B16 VHH with S105G
notes: as for B1

Each binder was assayed against T1, extracellular domain of mouse IL12RB1 … (assay: periplasmic extract ELISA (PE-ELISA) of phage clones, colorimetric).
Procedure, shortened: (§1)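 VHH domains were obtained from camels immunized sequentially with human and mouse receptor extracellular domain–Fc fusion proteins, then cloned with a his-tag into a phagemid in E. coli. The phage library was panned over several rounds on the human or mouse extracellular domain, and single clones were checked for selective binding by colorimetric periplasmic extract ELISA.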

Binder	binding result
B1	binds
B2	binds
B3	binds
B4	binds
B5	binds
B6	binds
B7	binds
B8	binds
B9	binds
B10	binds
B11	binds
B12	binds
B13	binds
B14	binds
B15	binds
B16	binds
B17	binds

The binders below were run against T2, extracellular domain of human IL12RB1 (hIL12Rb1 ECD) (human, UniProt P42701 24-545) in the same assay as above.
T2 construct: The immunogen was a fusion of the ECD with the human IgG1 hinge and Fc; also called IL12Rβ1; CD212
Procedure, shortened: as §1

Binder	binding result
B18	binds
B19	binds
B20	binds
B21	binds
B22	binds
B23	binds
B24	binds
B25	binds
B26	binds
B27	binds
B28	binds
B29	binds
B30	binds
B31	binds
B32	binds
B33	binds
B34	binds
B35	binds
B36	binds
B37	binds
B38	binds
